# Measurements from IntAct's records for PubMed 15716268.
# B1: NAD-dependent protein deacetylase sirtuin-1 (Mus musculus), Q923E4 (parent)
# chain: MADEVALALQAAGSPSAAAAMEAASQPADEPLRKRPRRDGPGLGRSPGEPSAAVAPAAAGCEAASAAAPAALWREAAGAAASAEREAPATAVAGDGDNGSGLRREPRAADDFDDDEGEEEDEAAAAAAAAAIGYRDNLLLTDGLLTNGFHSCESDDDDRTSHASSSDWTPRPRIGPYTFVQQHLMIGTDPRTILKDLLPETIPPPELDDMTLWQIVINILSEPPKRKKRKDINTIEDAVKLLQECKKIIVLTGAGVSVSCGIPDFRSRDGIYARLAVDFPDLPDPQAMFDIEYFRKDPRPFFKFAKEIYPGQFQPSLCHKFIALSDKEGKLLRNYTQNIDTLEQVAGIQRILQCHGSFATASCLICKYKVDCEAVRGDIFNQVVPRCPRCPADEPLAIMKPEIVFFGENLPEQFHRAMKYDKDEVDLLIVIGSSLKVRPVALIPSSIPHEVPQILINREPLPHLHFDVELLGDCDVIINELCHRLGGEYAKLCCNPVKLSEITEKPPRPQKELVHLSELPPTPLHISEDSSSPERTVPQDSSVIATLVDQATNNNVNDLEVSESSCVEEKPQEVQTSRNVENINVENPDFKAVGSSTADKNERTSVAETVRKCWPNRLAKEQISKRLEGNQYLFVPPNRYIFHGAEVYSDSEDDVLSSSSCGSNSDSGTCQSPSLEEPLEDESEIEEFYNGLEDDTERPECAGGSGFGADGGDQEVVNEAIATRQELTDVNYPSDKS
# partner: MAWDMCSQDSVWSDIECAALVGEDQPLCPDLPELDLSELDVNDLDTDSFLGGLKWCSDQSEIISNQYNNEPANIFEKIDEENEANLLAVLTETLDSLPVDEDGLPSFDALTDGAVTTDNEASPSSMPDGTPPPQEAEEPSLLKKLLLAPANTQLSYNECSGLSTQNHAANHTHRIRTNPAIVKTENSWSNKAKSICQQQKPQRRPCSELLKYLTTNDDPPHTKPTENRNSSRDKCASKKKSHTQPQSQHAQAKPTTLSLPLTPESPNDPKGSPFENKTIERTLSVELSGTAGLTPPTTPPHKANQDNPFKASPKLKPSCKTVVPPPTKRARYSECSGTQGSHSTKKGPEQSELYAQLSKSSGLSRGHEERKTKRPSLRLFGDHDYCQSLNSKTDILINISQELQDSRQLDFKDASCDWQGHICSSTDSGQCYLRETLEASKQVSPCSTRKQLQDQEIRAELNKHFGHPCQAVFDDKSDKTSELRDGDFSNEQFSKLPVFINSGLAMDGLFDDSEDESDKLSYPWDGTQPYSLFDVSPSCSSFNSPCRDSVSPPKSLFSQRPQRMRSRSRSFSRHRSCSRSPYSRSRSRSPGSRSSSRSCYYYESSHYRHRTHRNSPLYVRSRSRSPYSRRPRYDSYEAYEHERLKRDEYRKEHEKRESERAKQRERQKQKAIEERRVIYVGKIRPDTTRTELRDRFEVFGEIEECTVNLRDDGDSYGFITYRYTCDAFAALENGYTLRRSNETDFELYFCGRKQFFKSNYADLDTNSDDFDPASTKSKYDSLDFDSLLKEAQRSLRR
# Variants of: B1
# Conditions: with prgc1_mouse Ppargc1a
row,Variant,effect of a mutation on the interaction
1,G261A,decreasing interaction
